Measurements published in publication PMC8138767, “Intrinsically disordered substrates dictate SPOP subnuclear localization and ubiquitination activity” (The Journal of Biological Chemistry, 2021).
Values joined by “and” are separate entries in the source; they are usually repeats but may differ in a detail not shown here. Identical values can stand only once. Where no end group is shown, it is not given here.

Key:
[1] = tested on: SPOP–MATH substrate-binding groove; test: 1H,15N HSQC NMR titration of 15N–SPOP–MATH with Pdx1 peptides; design: species or system human
Experimental: (§1) NMR data collection and analysis
(§2) NMR data were collected on Bruker Avance III 500, 600, or 850 MHz spectrometers equipped with TCI triple-resonance cryoprobes. All data collection and initial processing were carried out in TopSpin (Bruker). NMR experiments on all proteins were collected in 50 mM sodium phosphate, pH 6.5, 50 mM sodium chloride, 5 mM DTT, 0.01% sodium azide, and 5% D2O unless otherwise noted.
Addition of Pdx1 peptides into ^15N–SPOP–MATH was monitored by sensitivity-enhanced ^1H, ^15N HSQC. The peptides were mixed in a 4:1 peptide:SPOP mole ratio with between 0.1 and 0.2 mM ^15N–SPOP–MATH. Each experiment consisted of 16 scans and 2048 × 256 complex data points. Spectral comparison was carried out in NMRFAM-Sparky using the assigned ^15N-SPOP-MATH spectrum as a reference. Integrated peak intensities before and after the addition of peptide were compared and normalized within each dataset, and the percent change (1 − Ibound/Iunbound) was plotted on the surface of published SPOP–MATH cocrystal structures (PDB IDs: 3IVV or 6F8F) ([25], [33]) using PyMol (PyMOL Molecular Graphics System, Version 2.1.1, Schrödinger, LLC). In each case, surface coloring corresponds to thresholds of intensity change, where the greatest resonance intensity changes are reflected by the lightest color. […]

SPOP28–359 = target: T1, SPOP28–359 (Homo sapiens, UniProt O43791); test: Competition fluorescence anisotropy, displacement of f-Puc from oligomeric SPOP28–359; format: binding; details: competition FA; 40 nM f-Puc, 6 μM SPOP28–359; 50 mM sodium phosphate pH 6.5, 50 mM NaCl, 5 mM DTT, 1% BSA, 0.01% Triton X-100; complete competitive binding model; ± standard deviation of three independent replicates (Table S4)
T1 construct: A plasmid encoding His–SUMO–SPOP human residues 28 to 359; His-SUMO (N, cleaved yes); made in house; host or cells: E. coli Rosetta BL-21(DE3)
T1 sequence (O43791 28-359): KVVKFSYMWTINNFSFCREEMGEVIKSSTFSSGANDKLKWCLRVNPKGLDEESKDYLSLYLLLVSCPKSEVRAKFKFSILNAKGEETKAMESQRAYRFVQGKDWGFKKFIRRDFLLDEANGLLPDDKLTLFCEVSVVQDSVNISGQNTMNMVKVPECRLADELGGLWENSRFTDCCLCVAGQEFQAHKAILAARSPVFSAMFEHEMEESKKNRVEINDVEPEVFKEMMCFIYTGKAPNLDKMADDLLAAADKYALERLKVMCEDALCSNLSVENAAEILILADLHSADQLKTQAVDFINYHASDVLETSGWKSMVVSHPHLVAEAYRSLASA
Text: An Escherichia coli codon-optimized DNA sequence encoding amino acids 205 to 283 of the human Pdx1 sequence (Pdx1-C) in the multiple cloning site of pET49b(+) was purchased from GeneArt (Thermo Fisher). The pET49b(+) backbone encodes for N-terminal glutathione S-transferase and 6X His tags, followed by a 3C protease recognition motif. In all experiments described herein, a mutant containing an exogenous tryptophan at the N terminus of the human Pdx1-C sequence was used for the purposes of quantitation. Mutations in Pdx1-C were generated by Q5 site-directed mutagenesis (New England Biolabs) with primers designed on NEBbasechanger.com according to the manufacturer protocol. […]
All FA experiments were conducted in 50 mM sodium phosphate, pH 6.5, 50 mM sodium chloride, 5 mM DTT, 1% BSA, and 0.01% Triton X-100. In all experiments, the source of fluorescence signal was f-Puc purchased from GenScript, at a final concentration of 40 nM. […] The fluorescence polarization of each well was measured (from which FA was calculated) using either a TECAN Infinite M1000 Pro or BioTek Synergy 4 fluorometer. […] FA data points were fit to a complete competitive binding model ([23]) to determine dissociation constants using in-house Python scripts (see Quantification and statistical analysis). […]

[2] = target: T2, SPOP–MATH (residues 28–166) (Homo sapiens, UniProt O43791); test: Competition fluorescence anisotropy, displacement of f-Puc from SPOP–MATH; format: binding; details: competition FA
T2 construct: glutathione S-transferase (GST) (N, cleaved yes); 6X His (N, cleaved yes); made in house; host or cells: E. coli BL-21(DE3)
T2 sequence (O43791 28-166): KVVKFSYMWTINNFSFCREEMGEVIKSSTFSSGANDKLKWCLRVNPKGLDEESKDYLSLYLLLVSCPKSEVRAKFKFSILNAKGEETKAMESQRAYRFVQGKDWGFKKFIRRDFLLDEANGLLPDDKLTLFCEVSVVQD
Text: An Escherichia coli codon-optimized DNA sequence encoding amino acids 205 to 283 of the human Pdx1 sequence (Pdx1-C) in the multiple cloning site of pET49b(+) was purchased from GeneArt (Thermo Fisher). The pET49b(+) backbone encodes for N-terminal glutathione S-transferase and 6X His tags, followed by a 3C protease recognition motif. In all experiments described herein, a mutant containing an exogenous tryptophan at the N terminus of the human Pdx1-C sequence was used for the purposes of quantitation. Mutations in Pdx1-C were generated by Q5 site-directed mutagenesis (New England Biolabs) with primers designed on NEBbasechanger.com according to the manufacturer protocol. Similarly, an E. coli–optimized DNA sequence encoding residues 28 to 166 of human SPOP (SPOP–MATH) was purchased in pET49b(+) from GeneArt. […] A plasmid encoding His–SUMO–SPOP human residues 28 to 359 harboring a tobacco etch virus protease recognition site directly N terminal to the beginning of the native SPOP protein sequence was generated previously ([21]).
All FA experiments were conducted in 50 mM sodium phosphate, pH 6.5, 50 mM sodium chloride, 5 mM DTT, 1% BSA, and 0.01% Triton X-100. In all experiments, the source of fluorescence signal was f-Puc purchased from GenScript, at a final concentration of 40 nM. For direct FA measurements, SPOP–MATH or SPOP28–359 of concentrations between 0.001 and 300 μM was added to wells of 96- or 384-well plates containing f-Puc and buffer. For competition-mode experiments, serial dilutions of each competitor (Pdx1 peptide or recombinant protein) were prepared ranging from ∼0.01 μM to ∼2 mM (concentration range varied based on peptide solubility) in wells of 96- or 384-well plates containing 40 nM f-Puc and 6 μM SPOP–MATH or SPOP28–359. The fluorescence polarization of each well was measured (from which FA was calculated) using either a TECAN Infinite M1000 Pro or BioTek Synergy 4 fluorometer. All experiments were performed with at least three technical replicates. FA data points were fit to a complete competitive binding model ([23]) to determine dissociation constants using in-house Python scripts (see Quantification and statistical analysis).
All titrations were performed in triplicate for rigor. Direct FA titrations were performed to determine the dissociation constants of the fluorescent probe toward SPOP constructs. Direct titration data were fit according to equation 6 in ([54]). Competition mode titration data were fit according to the fitting function in ([23]). Average dissociation constants and standard error from the mean for all constructs from competition experiments may be found in Table S4. The python scripts used in plotting and fitting may be found at https://github.com/idpemery/spop-pdx1.

[3] = target: f-Puc, fluorescein-labeled peptide of the SPOP substrate Puc (residues 91-106); test: fluorescence polarisation; direct fluorescence anisotropy titration: SPOP construct (0.001-300 μM) added to 40 nM f-Puc; 50 mM sodium phosphate pH 6.5, 50 mM NaCl, 5 mM DTT, 1% BSA, 0.01% Triton X-100
[4] = target: f-Puc (fluorescein-labeled Puc peptide); test: fluorescence polarisation; direct fluorescence anisotropy: SPOP construct 0.001-300 μM added to 40 nM f-Puc; 50 mM sodium phosphate pH 6.5, 50 mM NaCl, 5 mM DTT, 1% BSA, 0.01% Triton X-100
[5] = target: T3, SPOP–MATH (human SPOP residues 28–166) (human, UniProt O43791 28-166); test: fluorescence polarisation; competition fluorescence anisotropy: competitor ~0.01 μM to ~2 mM against 40 nM f-Puc and 6 μM SPOP–MATH; 50 mM sodium phosphate pH 6.5, 50 mM NaCl, 5 mM DTT, 1% BSA, 0.01% Triton X-100; complete competitive binding fit; details: both partners purified
T3 construct: N-terminal Gly–Pro–Gly cloning artifact left after 3C protease; speckle-type POZ protein (SPOP), human, MATH domain, residues 28-166; Uniformly 15N (or 13C,15N) enriched for the NMR experiments in which it is the observed protein; also called monomeric SPOP–MATH; ^15N–SPOP–MATH; source: E. coli BL-21(DE3), purified (Ni-NTA, 3C protease, second Ni-NTA, Sephacryl S100 gel filtration); not shown: …
T3 sequence (O43791 other isoform, or with tags, fused parts or gaps): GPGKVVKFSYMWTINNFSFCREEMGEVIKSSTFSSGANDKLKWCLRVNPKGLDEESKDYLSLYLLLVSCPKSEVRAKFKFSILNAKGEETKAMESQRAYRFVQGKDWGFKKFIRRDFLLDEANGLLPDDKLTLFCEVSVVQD

[6] = target: T4, SPOP28-359 (human SPOP residues 28-359) (human, UniProt O43791 28-359); test: fluorescence polarisation; competition fluorescence anisotropy: competitor (~0.01 μM to ~2 mM) displaces 40 nM f-Puc from 6 μM SPOP-MATH or SPOP28-359; complete competitive binding fit; 50 mM sodium phosphate pH 6.5, 50 mM NaCl, 5 mM DTT, 1% BSA, 0.01% Triton X-100; details: both partners purified
T4 construct: also called oligomeric SPOP; source: E. coli Rosetta BL-21(DE3), purified (Ni-NTA, TEV protease, second Ni-NTA, Superdex 200); not shown: His, N-terminal, cleaved; SUMO, N-terminal, cleaved
T4 sequence (O43791 28-359): as the sequence (O43791 28-359) above

[7] = target: T5, SPOP-MATH (human SPOP residues 28-166) (human, UniProt O43791 28-166); test: as above; details: both partners purified
T5 construct: N-terminal Gly-Pro-Gly cloning artefact left after 3C protease; speckle-type POZ protein (SPOP), human, MATH domain, residues 28-166; uniformly 15N-labelled for the NMR experiments; also called 15N-SPOP-MATH; source: E. coli BL-21(DE3), purified (Ni-NTA, 3C protease, second Ni-NTA, Sephacryl S100); not shown: GST, N-terminal, cleaved; His6, N-terminal, cleaved
T5 sequence (O43791 other isoform, or with tags, fused parts or gaps): as the sequence (O43791 other isoform, or with tags, fused parts or gaps) above

[8] = target: T6, SPOP_(28–359) (human SPOP residues 28–359) (human, UniProt O43791 28-359); test: fluorescence polarisation; competition fluorescence anisotropy: competitor against 40 nM f-Puc and 6 μM SPOP_(28–359); 50 mM sodium phosphate pH 6.5, 50 mM NaCl, 5 mM DTT, 1% BSA, 0.01% Triton X-100; complete competitive binding fit; details: both partners purified
T6 construct: also called His–SUMO–SPOP (before cleavage); source: E. coli Rosetta BL-21(DE3), purified (Ni-NTA, TEV protease, second Ni-NTA, Superdex 200); not shown: His, N-terminal, cleaved; SUMO, N-terminal, cleaved
T6 sequence (O43791 28-359): as the sequence (O43791 28-359) above

[9] = target: T2, SPOP–MATH (residues 28–166); test: (HACA)CON NMR of 13C,15N–Pdx1-C with SPOP–MATH; format: binding; details: 13C direct-detect (HACA)CON, 500 MHz, 25 °C, pH 6.5
Experimental: as §1, §2
Addition of SPOP–MATH into ^13C, ^15N–Pdx1-C was monitored by ^13C direct-detect (HACA)CON experiments ([44]) consisting of 16 scans and 1024 × 128 complex data points. SPOP–MATH was added to ^13C, ^15N–Pdx1-C such that the final concentrations were 0.35 mM and 0.37 mM, respectively. Peaks from each spectrum were integrated and used to calculate a percent intensity change in Pdx1-C resonances after binding of SPOP–MATH. SPOP28–359 was added to ^13C, ^15N–Pdx1-C at a 4-fold molar excess and detected by HSQC or (HACA)CON. Line broadening precluded residue-specific analysis of SPOP28–359 and Pdx1-C.

Molecule: Ac-GVAEPEQDCAVTSGEELLALPP [Pdx1–SBM1, SB motif 1 peptide of Pdx1 (residues 224–236)]
- relative SB affinity from mixed-peptide NMR ([1]; SBM1 and SBM2 peptides added to 15N-SPOP-MATH in equimolar ratios): higher SB affinity of Pdx1–SBM1 than Pdx1–SBM2
- HSQC spectral changes in SPOP–MATH ([1]; peptide:15N-SPOP–MATH 4:1, 0.1–0.2 mM 15N–SPOP–MATH, 50 mM sodium phosphate pH 6.5, 50 mM NaCl, 5 mM DTT): spectral changes are primarily localized to the substrate-binding groove

Molecule: ENLACDEVTSTTSSST [Puc, reference compound]
- Kd (SPOP28–359): 2600 ± 1000 nM
- Kd ([2]; 40 nM f-Puc, 6 μM SPOP–MATH, 50 mM sodium phosphate pH 6.5, 50 mM NaCl, 5 mM DTT, 1% BSA, 0.01% Triton X-100, complete competitive binding model, ± standard deviation of three independent replicates (Table S4)): 2600 ± 400 nM

Molecule: SPOP28-359 (human SPOP residues 28-359) (from UniProt O43791 28-359) (domain or fragment)
- Kd [3]: 2550 nM and 2620 nM

Molecule: SPOP-MATH (human SPOP residues 28-166) (from UniProt O43791 28-166) (domain or fragment)
- Kd [3]: 2620 nM and 2550 nM

Molecule: SPOP–MATH (human SPOP residues 28–166) (from UniProt O43791 28-166) (domain or fragment)
- Kd [4]: 2600 nM

B1: Pdx1–SBM1f peptide (Pdx1 residues 224–234) (peptide)
peptide: EQDCAVTSGEE
notes: human Pdx1 residues 224-234, shorter SBM1 peptide used for fluorescence anisotropy; source: synthetic peptide (Tufts University Core Facility, HPLC purified)
- Kd [5]: 140000 nM

B2: Pdx1-C (C-terminal intrinsically disordered region of human Pdx1) (domain or fragment)
chain: GPGWEDKKRGGGTAVGGGGVAEPEQDCAVTSGEELLALPPPPPPGGAVPPAAPVAAREGRLPPGLSASPQPSSVAPRRPQEPR
notes: N-terminal Gly-Pro-Gly cloning artefact left after 3C protease; pancreatic and duodenal homeobox 1 (Pdx1), human, amino acids 205-283 by the methods; the exogenous tryptophan may be what is counted as residue 204 (surmise); also called 13C,15N-Pdx1-C; source: E. coli BL-21(DE3), purified (Ni-NTA, 3C protease, second Ni-NTA, heat, anion exchange flow-through); not shown: GST, N-terminal, cleaved; …
- Kd [6]: 3500 nM
- Kd [7]: 32000 nM

B3: Pdx1-C (C-terminal intrinsically disordered region of human Pdx1) (domain or fragment)
chain: B2 chain
notes: N-terminal Gly–Pro–Gly cloning artifact left after 3C protease; pancreatic and duodenal homeobox 1 (Pdx1), human, amino acids 205-283 (methods); The results' 204–283 may count the added tryptophan as position 204; 13C,15N enriched for NMR; also called ^13C, ^15N-Pdx1-C; Pdx1 C terminus; source: E. coli BL-21(DE3), purified (Ni-NTA, 3C protease, second Ni-NTA, heat, anion exchange flow-through); …
- fold enhancement in binding affinity compared with SPOP–MATH [8]: ~10 fold

B4: Pdx1-C: recombinant human Pdx1 C-terminal intrinsically disordered region (residues 204–283) (protein)
chain: B2 chain
modifications: left off: GST, N-terminal, cleaved | His6, N-terminal, cleaved
- resonance intensity loss in Pdx1-C on addition of SPOP-MATH [9]: marked resonance intensity loss in two specific locations: amino acids 220 to 235 (highlighted in teal) and amino acids 265 to 275
- apparent affinity for SPOP–MATH, in words ([2]; Fig. 5 and Table S4): higher apparent affinity for SPOP–MATH than the strongest individual SB motif alone

B5: Puc peptide (residues 91-106), unlabeled (peptide)
peptide: ENLACDEVTSTTSSST
notes: puckered protein (Puc), residues 91-106; also called dark Puc peptide; unlabeled Puc peptide; source: synthetic peptide (Tufts University Core Facility, HPLC purified)
- Kd [6]: 2600 nM
- Kd [7]: 2600 nM
